In the assay the target is A/New Caledonia/20/1999 (NC H1N1) recombinant hemagglutinin (HA) (Influenza A virus A/New …, UniProt Q6WG00, strain). The assay is described as follows: ELISA. The following applies: both partners purified. For orientation: ELISA stands for enzyme-linked immunosorbent assay.

B1: FI6 human IgG1 (antibody, V domains shown)
VH: QVQLVESGGGVVQPGRSLRLSCAASGFTFSTYAMHWVRQAPGKGLEWVAVISYDANYKYYADSVKGRFTISRDNSKNTLYLQMNSLRAEDTAVYYCAKDSQLRSLLYFEWLSQGYFDYWGQGTLVTVSS
VL: not shown
notes: also called native human IgG1; source: HEK-293, transfected (pTT5), purified from cell culture supernatant (MabSelect); copies: 2 + 2
B1: the binding result was “binds”.

Source of the values: publication PMC9865026 (Pathogens, 2022).
